# Laboratory results taken from patent publication US20100196385A1 (AstraZeneca / MedImmune, published 2010).
# T1: human Dll1 (human, UniProt O00548 18-723)
# T1 construct: whole, on cells
# T1 sequence (looked up): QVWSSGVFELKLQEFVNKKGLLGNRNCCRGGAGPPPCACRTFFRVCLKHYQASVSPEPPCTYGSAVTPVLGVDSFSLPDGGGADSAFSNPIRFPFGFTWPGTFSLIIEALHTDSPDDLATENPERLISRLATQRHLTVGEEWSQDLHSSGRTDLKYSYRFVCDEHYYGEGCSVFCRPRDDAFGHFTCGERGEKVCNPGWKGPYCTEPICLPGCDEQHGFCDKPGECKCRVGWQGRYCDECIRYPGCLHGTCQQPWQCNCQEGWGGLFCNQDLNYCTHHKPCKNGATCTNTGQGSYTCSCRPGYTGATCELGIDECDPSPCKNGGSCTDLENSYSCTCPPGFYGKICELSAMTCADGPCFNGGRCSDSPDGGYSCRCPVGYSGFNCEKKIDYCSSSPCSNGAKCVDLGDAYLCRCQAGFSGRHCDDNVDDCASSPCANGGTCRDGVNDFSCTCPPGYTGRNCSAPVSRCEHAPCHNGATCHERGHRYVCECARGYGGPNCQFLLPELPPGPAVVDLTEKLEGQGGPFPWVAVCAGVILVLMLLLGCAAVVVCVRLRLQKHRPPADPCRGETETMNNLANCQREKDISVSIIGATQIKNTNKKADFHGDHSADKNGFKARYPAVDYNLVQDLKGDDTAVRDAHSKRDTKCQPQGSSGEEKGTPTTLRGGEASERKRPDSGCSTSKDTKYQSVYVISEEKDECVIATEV
# B1: 1D4 (antibody, IgG4, V domains shown)
# VH: QLQLQESGPGLVKPSETLSLTCTVSGGSISSSSYYWGWIRQPPGKGLEWIGSFYYSRSTYYNPSLKSRVTISVDTSKNQFSLKLSSVTAADTAVHYCARGSIAVPDAFDIWGQGTMVTVSS
# VL: SYELTQPPSVSVSPGQTASITCSGDKLGDKFACWYQQKPGHSPVLVVYQDNKRPSGIPERFSGSNSGNSATLTISGTQAMDEADYYCQAWDSNTAVFGGGTKLTVL
# notes: Fully human XenoMouse antibody; also used where no isotype is printed
# B2: 3A7 (antibody, IgG4, V domains shown)
# VH: EVQVVESGGGLVQPGGSLRLSCEASGFTFSNYWMIWVRQAPGKGLEWVASIKEDGSEKYYVDSVKGRFTISRDNAKSSLYLQMNSLRAEDTAVYYCVRDWELRGHYYYHGMDVWGQGTTVTVSS
# VL: DIQMTQSPSSLSASVGDRVTITCRASLDIRNDLGWFLQKPGKAPKRLIYAASSLQSGVPSRFSGSGSGTEFTLTINSLQPEDFATYYCLQHRNYPFTFGPGTKVDFK
# notes: Fully human; also used where no isotype is printed
# B3: 1E4 (antibody, IgG2, V domains shown)
# VH: QVQLVESGGGVVQPGRSLRLSCAASGFTFSSYGMHWVRQAPGKGLEWVAVTWYDGSNKYYADSVKGRFTISRDNSKNTLYLQMNSLRAEDTAVYYCARENCSSTSCYYTVTTDYYGMDVWGQGTTVTVSS
# VL: EIVLTQSPGTLSLSPGERATLSCRASQRVSSSYLTWYQQKPGQAPRLLIYGASIRATGIPDRFSGSGSGTDFTLTITRLEPEDFAVYFCQQCYTSPITFGQGTRLDIK
# notes: as for B2
# Target: T2, human Jagged1 (human, UniProt P78504 34-1218)
# T2 construct: whole, on cells
# T2 sequence (P78504 34-1218): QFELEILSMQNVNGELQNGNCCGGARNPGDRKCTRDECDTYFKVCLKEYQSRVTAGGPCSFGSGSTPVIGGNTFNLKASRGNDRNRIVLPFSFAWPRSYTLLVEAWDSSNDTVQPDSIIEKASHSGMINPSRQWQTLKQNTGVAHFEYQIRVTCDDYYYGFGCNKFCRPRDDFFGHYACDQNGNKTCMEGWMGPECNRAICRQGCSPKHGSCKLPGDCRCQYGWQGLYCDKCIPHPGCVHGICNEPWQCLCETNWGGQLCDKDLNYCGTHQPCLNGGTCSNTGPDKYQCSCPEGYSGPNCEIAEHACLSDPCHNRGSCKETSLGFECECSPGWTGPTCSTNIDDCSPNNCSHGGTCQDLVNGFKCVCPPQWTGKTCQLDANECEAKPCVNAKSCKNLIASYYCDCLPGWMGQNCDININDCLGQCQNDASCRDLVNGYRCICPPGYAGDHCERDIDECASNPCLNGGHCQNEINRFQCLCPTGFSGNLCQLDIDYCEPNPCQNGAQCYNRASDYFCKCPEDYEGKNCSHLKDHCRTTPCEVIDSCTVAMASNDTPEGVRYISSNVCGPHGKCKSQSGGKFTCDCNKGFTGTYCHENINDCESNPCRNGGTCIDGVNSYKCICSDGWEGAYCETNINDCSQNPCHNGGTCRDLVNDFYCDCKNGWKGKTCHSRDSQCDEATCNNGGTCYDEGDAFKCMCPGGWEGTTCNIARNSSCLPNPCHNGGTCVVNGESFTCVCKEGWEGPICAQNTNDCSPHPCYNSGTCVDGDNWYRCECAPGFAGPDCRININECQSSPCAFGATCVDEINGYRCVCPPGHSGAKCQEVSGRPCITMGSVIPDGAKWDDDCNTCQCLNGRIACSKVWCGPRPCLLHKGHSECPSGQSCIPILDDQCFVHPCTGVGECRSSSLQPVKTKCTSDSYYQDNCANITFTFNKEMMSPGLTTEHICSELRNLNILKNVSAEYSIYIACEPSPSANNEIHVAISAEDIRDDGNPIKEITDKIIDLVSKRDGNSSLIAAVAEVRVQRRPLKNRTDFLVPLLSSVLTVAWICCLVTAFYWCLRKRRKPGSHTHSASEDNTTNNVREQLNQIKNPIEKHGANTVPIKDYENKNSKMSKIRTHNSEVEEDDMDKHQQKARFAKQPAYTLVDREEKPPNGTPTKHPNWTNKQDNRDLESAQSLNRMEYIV
# Test: FACS, 5 µg/ml, 293T cells with human Jagged1 vs mock
# Description: (§1) The ability of the purified antibodies to bind to human Jagged1 and Dll1 was determined by FACS analysis. […] Cells were resuspended in PBS containing 2% FCS and seeded at 50000 cells/well into V-bottomed plates. Anti-DLL4 antibodies diluted in PBS containing 2% FCS were added at a final concentration of 5 or 15 μg/ml and plates were incubated for 1 h at 4° C. […] Data was analyzed by comparing the shift in geometric mean fluorescence in the mock-transfected cells to that observed in the Jagged1- or Dll1-transfected cells and is shown in Tables 16 and 17.
row,Binder,Jagged1/mock ratio
1,B1,1.01
2,B2,1.1
3,B3,1.13

# Target: T3, full length human DLL4 (human, UniProt Q9NR61 27-685)
# T3 construct: whole, on cells; also called native DLL4 expressed in HEK293 cells
# T3 sequence (Q9NR61 27-685): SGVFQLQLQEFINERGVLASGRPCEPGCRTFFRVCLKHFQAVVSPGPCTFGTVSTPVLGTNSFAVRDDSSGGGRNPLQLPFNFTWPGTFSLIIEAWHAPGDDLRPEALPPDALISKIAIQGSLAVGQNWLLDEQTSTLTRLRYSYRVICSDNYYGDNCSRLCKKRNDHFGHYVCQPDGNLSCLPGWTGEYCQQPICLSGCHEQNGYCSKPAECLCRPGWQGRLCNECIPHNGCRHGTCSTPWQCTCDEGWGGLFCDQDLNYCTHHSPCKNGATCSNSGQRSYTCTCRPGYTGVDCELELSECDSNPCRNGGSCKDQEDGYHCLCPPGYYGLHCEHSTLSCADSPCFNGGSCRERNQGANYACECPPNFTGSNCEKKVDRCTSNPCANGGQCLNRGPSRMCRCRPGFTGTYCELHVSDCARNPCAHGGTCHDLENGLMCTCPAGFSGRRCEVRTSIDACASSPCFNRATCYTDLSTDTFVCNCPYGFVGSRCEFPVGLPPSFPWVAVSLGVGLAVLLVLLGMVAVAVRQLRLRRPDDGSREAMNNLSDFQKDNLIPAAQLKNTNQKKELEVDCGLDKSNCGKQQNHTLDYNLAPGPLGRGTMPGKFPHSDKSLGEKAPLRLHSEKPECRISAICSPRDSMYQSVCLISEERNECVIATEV
# Test: FMAT, hybridoma supernatant, 293T cells with human DLL4
# Description: (§2) Cells diluted in PBS containing 2% FBS were seeded at a density of 3000 expressing and 15000 mock transfected cells per well in 384 well plates (Corning Costar, catalog #3712). Immediately after plating, 15 or 20 μl/well of hybridoma supernatants and 10 μl/well of secondary antibody (Goat anti-human IgG Fc Cy5, final concentration 750 ng/ml) were added and plates incubated for 3 h at room temperature prior to reading the fluorescence on the FMAT 8200 instrument (Applied Biosystems). The binding of human Notch1/Fc chimera (R&D systems, catalog #3647-TK), diluted 1:2 from 2.86 μg/ml was used as a positive control for DLL4 and human Notch3/Fc chimera diluted from 10 μg/ml was used a positive control for binding to Jagged1. Results for 12 hybridoma supernatants showing binding of hybridoma supernatants to human/cynomolgus monkey DLL4 and human Jagged are shown in Table 3.
Binder,Count,FL1,FL1 x count
B1,196,10600,2.08e+06
B2,166,9470,1.57e+06
B3,206,10400,2.14e+06

# Target: T3, full length human DLL4
# Test: FMAT competition, purified antibody vs Alexa-647 human Notch1/Fc, 293T cells with human DLL4
# Description: To discriminate between the purified antibodies based upon their ability to prevent the interaction between full-length recombinant DLL4 and soluble Notch1/Fc, the following assays were performed. Transfected and untransfected 239T cells were reconstituted in PBS containing 2% FCS and 5000 transfected and 17500 non-transfected cells were plated in 30 μl into wells of a 384-well tissue culture plate (Corning Costar, catalog #3712). Subsequently, 30 μl of purified antibodies, serial diluted from 5 μg/ml hybridoma supernatant was added and plates were incubated at 4° C. for 1 h, at which time 20 μl of 100 ng/ml Alexa-647 labeled human Notch1/Fc was added. After a further 3 h incubation at 4° C., the amount of bound Notch1/Fc was determined by reading the fluorescence in each well using an FMAT 8200 instrument (Applied Biosystems).
Binder,% inhibition at 0.020 nM,% inhibition at 0.070 nM,% inhibition at 0.21 nM,% inhibition at 0.62 nM,% inhibition at 1.9 nM,% inhibition at 5.6 nM,% inhibition at 16.7 nM,IC50
B1,7%,-2%,5%,13%,58%,124%,123%,2 nM
B2,-1%,7%,-1%,19%,39%,82%,104%,2.94 nM
B3,-7%,24%,21%,46%,91%,129%,120%,0.99 nM

# Target: T2, human Jagged1
# Test: FACS, 5 µg/ml, 293T cells with human Jagged1
# Description: as §1
row,Binder,Jagged1/293T X Geo mean
1,B1,16.8
2,B2,16.4
3,B3,16.9

# Target: T1, human Dll1
# Test: FACS, 15 µg/ml, 293T cells with human Dll1 vs mock
# Description: as §1
row,Binder,Dll1/mock ratio
1,B1,1.09
2,B2,1.06
3,B3,1.15

# Target: T2, human Jagged1
# Test: FMAT, hybridoma supernatant, 293T cells with human Jagged1
# Description: as §2
Binder,Count,FL1,FL1 x count
B1,23,3250,74800
B2,1,1940,1940
B3,2,8020,16000

# Target: T3, full length human DLL4
# Test: FMAT competition, supernatant vs Alexa-647 human Notch1/Fc, 293T cells with human DLL4
# Description: Transfected and untransfected 239T cells were reconstituted in PBS containing 2% FCS and 5000 transfected and 17500 non-transfected cells were plated in 20 μl into wells of a 384-well tissue culture plate (Corning Costar, catalog #3712). Subsequently, 20 μl of hybridoma supernatant was added and plates were incubated at 4° C. for 1 h, at which time 20 μl of Alexa-647 labeled human Notch1/Fc was added at a final concentration of 6.7 ng/ml. After a further 3 h incubation at 4° C., the amount of bound Notch1/Fc was determined by reading the fluorescence in each well using an FMAT 8200 instrument (Applied Biosystems). Results are expressed as % inhibitions with the minimum inhibition in the assay being determined by the effects of non-DLL4 binding supernatants prepared in a similar way as described in example 2, and the maximum inhibition being defined as the signal obtained in the presence of a saturating concentration of unlabeled Notch1/Fc. N.T.=not tested
Binder,% inhibition n = 1,% inhibition n = 2,% inhibition n = 3,Mean % inhibition
B1,105%,71%,146%,107%
B2,105%,120%,142%,122%
B3,98%,99%,113%,110%

# Target: T1, human Dll1
# Test: FACS, 15 µg/ml, 293T cells with human Dll1
# Description: as §1
row,Binder,Dll1/293T X Geo mean
1,B1,35.3
2,B2,36.8
3,B3,31.7

# Target: DLL4 extracellular domain (R&D systems, catalog #1506-D4/CF) (UniProt Q9NR61 27-529, limits assumed)
# Sequence (Q9NR61 27-529 limits assumed): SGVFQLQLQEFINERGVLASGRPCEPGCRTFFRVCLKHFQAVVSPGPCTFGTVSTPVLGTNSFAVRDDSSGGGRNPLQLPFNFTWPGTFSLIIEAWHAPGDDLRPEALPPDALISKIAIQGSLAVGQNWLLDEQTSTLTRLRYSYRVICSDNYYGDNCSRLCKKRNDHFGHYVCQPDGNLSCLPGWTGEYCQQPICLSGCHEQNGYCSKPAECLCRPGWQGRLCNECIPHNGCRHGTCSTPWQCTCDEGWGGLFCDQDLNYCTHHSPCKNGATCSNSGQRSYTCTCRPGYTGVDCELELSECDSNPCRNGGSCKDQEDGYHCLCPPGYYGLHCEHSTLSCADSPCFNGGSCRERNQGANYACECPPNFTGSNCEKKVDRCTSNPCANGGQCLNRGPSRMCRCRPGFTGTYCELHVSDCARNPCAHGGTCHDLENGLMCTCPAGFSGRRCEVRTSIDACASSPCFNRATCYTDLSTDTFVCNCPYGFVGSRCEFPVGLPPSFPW
# Test: cell-based or functional assay
Binder,"% inhibition 1 µg/ml, AVERAGE (HUVEC proliferation on coated DLL4)","% inhibition 1 µg/ml, N = 1 (HUVEC proliferation on coated DLL4)","% inhibition 1 µg/ml, N = 2 (HUVEC proliferation on coated DLL4)","% inhibition 10 µg/ml, AVERAGE (HUVEC proliferation on coated DLL4)","% inhibition 10 µg/ml, N = 1 (HUVEC proliferation on coated DLL4)","% inhibition 10 µg/ml, N = 2 (HUVEC proliferation on coated DLL4)"
B1,45%,43%,46%,72%,73%,71%
B2,65%,50%,80%,90%,74%,106%
B3,74%,73%,75%,82%,81%,82%
